From patent US20230012273A1 (Boehringer Ingelheim, published 2023)

T1: full-length human SIRPγ EN→DD on Expi-CHO cells (human, UniProt Q9P1W8 29-387)
T1 construct: the entry already carries the change (PENV to PDDV)
T1 chain: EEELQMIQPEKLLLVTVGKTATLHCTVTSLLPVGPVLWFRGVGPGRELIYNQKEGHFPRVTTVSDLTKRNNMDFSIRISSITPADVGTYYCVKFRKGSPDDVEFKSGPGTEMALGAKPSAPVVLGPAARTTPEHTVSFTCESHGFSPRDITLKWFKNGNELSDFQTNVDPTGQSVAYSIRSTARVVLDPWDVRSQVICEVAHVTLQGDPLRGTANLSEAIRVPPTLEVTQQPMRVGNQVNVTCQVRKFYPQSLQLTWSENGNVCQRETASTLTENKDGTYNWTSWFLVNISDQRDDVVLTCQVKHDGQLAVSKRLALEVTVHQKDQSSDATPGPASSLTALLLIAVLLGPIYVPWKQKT


Columns and labels:
[1] = molecular target: T2, full-length human SIRPαV1 (NP_542970.1) on cells (human, UniProt P78324 31-504); experiment: flow cytometry, CD14+ monocytes V1V1
T2 construct: one molecule for CHO-K1 and Expi-CHO transfectants (NP_542970.1) and for endogenous V1 on U-937 cells and on CD14+ monocytes of V1/V1 donors; also called CHO-hSIRPαV1; αV1 WT
Description: (§1) Antibody binding to primary human cells expressing SIRPα is evaluated by flow cytometry. Human peripheral blood mononuclear cells (PBMCs) from donors genotyped as homozygous for the SIRPα V1 allele, V2 allele, or heterozygous for both alleles are blocked with donkey IgG and incubated on ice with increasing concentrations of antibody for 60 minutes, washed and stained with AF647-conjugated donkey F(ab′)₂ anti-human IgG secondary reagent. […] Cells are washed, fixed, and analyzed by flow cytometry. Median fluorescent intensity of the CD14+ population was determined and used as a measure of antibody binding.

[2] = molecular target: T3, full-length human SIRPαV2 (CAA71403.1) on cells (human, UniProt P78324 31-504); experiment: flow cytometry, competition with CD47 tetramer, monocytes V2V2
T3 construct: one molecule for CHO-K1 and Expi-CHO transfectants (CAA71403.1) and for endogenous V2 on THP-1 cells and on CD14+ monocytes of V2/V2 donors; also called CHO-hSIRPαV2; αV2 WT
Description: Cells are washed, fixed, and analyzed by flow cytometry. Median fluorescent intensity of CD14+gated population is determined and used as a measure of CD47 binding.

[3] = molecular target: T4, full-length human SIRPγ (NP_061026.2) on cells (human, UniProt Q9P1W8 29-387); experiment: flow cytometry, primary human CD3+ T cells (endogenous SIRPγ)
T4 construct: also called CHO-hSIRPγ; γ WT
Description: Antibody binding to primary human T cells expressing endogenous SIRPγ is evaluated by flow cytometry. Human peripheral blood mononuclear cells (PBMCs) are blocked with donkey IgG and incubated on ice with increasing concentrations of antibody for 60 minutes, washed and stained with AF647-conjugated donkey F(ab′)₂ anti-human IgG secondary reagent. […] Cells are washed, fixed, and analyzed by flow cytometry. Median fluorescent intensity of CD3+ gated population is determined and used as a measure of antibody binding.

[4] = molecular target: T3, full-length human SIRPαV2 (CAA71403.1) …; experiment: flow cytometry, CD14+ monocytes V2V2
Description: as §1

[5] = molecular target: ED-tagged human SIRPα V1 receptor on Jurkat signaling reporter cells (human, UniProt P78324 31-504); experiment: cell-based or functional assay
[6] = molecular target: ED-tagged human SIRPα V2 receptor on Jurkat signaling reporter cells (human, UniProt P78324 31-504); experiment: cell-based or functional assay
[7] = molecular target: T5, full-length human SIRPβL (NP_001129316.1) on cells (human, UniProt Q5TFQ8 30-398); experiment: flow cytometry, U937 SIRPα-KO transfectants
T5 construct: one molecule for U937 SIRPα-KO transfectants (NP_001129316.1) and Expi-CHO transfectants (Q5TFQ8); also called SIRPβ1v3; βL WT
Description: (§2) Antibody binding to cells expressing full-length human SIRPβ1 (NP_006056.2) and SIRPβL (NP_001129316.1) is evaluated by flow cytometry. SIRPβ1- or SIRPβL-expressing U937^{SIRPα KO} cells are blocked with donkey IgG and incubated on ice with increasing concentrations of antibodies for 60 minutes, washed and stained with AF647-conjugated donkey F(ab′)₂ anti-human IgG secondary reagent. Cells are washed, fixed, and analyzed by flow cytometry. Median fluorescent intensity is determined and used as a measure of antibody binding.

[8] = molecular target: T6, full-length human SIRPγ N→D on Expi-CHO cells (human, UniProt Q9P1W8 29-387); experiment: flow cytometry, Expi-CHO cells
T6 construct: the entry already carries the change (PENV to PEDV)
Description: (§3) Expi-CHO parental cells are transduced with lentiviruses containing either full-length wild-type human SIRPγ ([…]) or full-length human SIRPγ with amino acid point mutations (Table 64) and sorted to achieve matching expression levels. These cells are blocked with donkey IgG and incubated on ice with increasing concentrations of antibodies for 60 minutes, washed and stained with AF647-conjugated donkey F(ab′)₂ anti-human IgG antibodies. Stained cells are washed, fixed, and analyzed by flow cytometry. Median fluorescent intensity is determined and used as a measure of antibody binding.

[9] = molecular target: T1, full-length human SIRPγ EN→DD on …; experiment: flow cytometry, Expi-CHO cells
Description: as §3

[10] = molecular target: T7, full-length human SIRPβL H→D on Expi-CHO cells (human, UniProt Q5TFQ8 30-398); experiment: flow cytometry, Expi-CHO cells
T7 construct: the entry already carries the change (PDHV to PDDV); also called βL WT H→D
Description: (§4) Expi-CHO parental cells are transduced with lentiviruses containing either full-length wild-type human SIRPβL (Q5TFQ8) or full-length human SIRPβL with a single amino acid point mutation (Table 62) and sorted to achieve matching expression levels. These cells are blocked with donkey IgG and incubated on ice with increasing concentrations of antibodies for 60 minutes, washed and stained with AF647-conjugated donkey F(ab′)₂ anti-human IgG antibodies. Stained cells are washed, fixed, and analyzed by flow cytometry. Median fluorescent intensity is determined and used as a measure of antibody binding.
(§5) A single amino acid substitution (H→D) introduced within the loop region maintained, strengthened, or facilitated antibody binding to these cells (FIG. 34B, Table 63).

[11] = molecular target: T4, full-length human SIRPγ (NP_061026.2) …; experiment: flow cytometry, Expi-CHO cells expressing full-length wild-type human SIRPγ
Description: […] These cells are blocked with donkey IgG and incubated on ice with increasing concentrations of antibodies for 60 minutes, washed and stained with AF647-conjugated donkey F(ab′)₂ anti-human IgG antibodies. Stained cells are washed, fixed, and analyzed by flow cytometry. Median fluorescent intensity is determined and used as a measure of antibody binding.

[12] = molecular target: T8, full-length human SIRPβ1 D→H on Expi-CHO cells (human, UniProt O00241 30-398); experiment: flow cytometry, Expi-CHO cells expressing full-length human SIRPβ1 D→H
T8 construct: the entry already carries the change (PDDV to PDHV)
Description: (§6) These cells are blocked with donkey IgG and incubated on ice with increasing concentrations of antibodies for 60 minutes, washed and stained with AF647-conjugated donkey F(ab′)₂ anti-human IgG antibodies. Stained cells are washed, fixed, and analyzed by flow cytometry. Median fluorescent intensity is determined and used as a measure of antibody binding.

[13] = molecular target: T5, full-length human SIRPβL …; experiment: flow cytometry, Expi-CHO cells expressing full-length wild-type human SIRPβL
Description: as §4, §5

[14] = molecular target: T9, full-length human SIRPβ1 (NP_006056.2) on cells (human, UniProt O00241 30-398); experiment: flow cytometry, Expi-CHO cells
T9 construct: also called β1 WT
Description: as §6

[15] = molecular target: T10, full-length human SIRPγ E→D on Expi-CHO cells (human, UniProt Q9P1W8 29-387); experiment: flow cytometry, Expi-CHO cells expressing full-length human SIRPγ E→D
T10 construct: the entry already carries the change (PENV to PDNV)
Description: as §3

[16] = molecular target: T9, full-length human SIRPβ1 (NP_006056.2) …; experiment: flow cytometry, U937 SIRPα-KO transfectants
Description: as §2

[17] = molecular target: T5, full-length human SIRPβL …; experiment: flow cytometry, U937 SIRPα-KO cells expressing full-length human SIRPβL
Description: as §2

| EC50 [1] | IC50 [2] | binding result [3] | EC50 [4] | Blockade of Cellular CD47-Mediated SIRPα Signaling; IC50 [5] | Blockade of Cellular CD47-Mediated SIRPα Signaling; IC50 [6] | EC50 [7] | EC50 [8] | EC50 [9] | EC50 [10] | binding result [11] | binding result [12] | binding result [13] | EC50 [14] | binding result [15] | EC50 [16] | binding result [17] | Binder |
| --- | --- | --- | --- | --- | --- | --- | --- | --- | --- | --- | --- | --- | --- | --- | --- | --- | --- |
| 0.3 nM | 0.22 nM | no binding (tested: about 67 nM) | 0.4 nM | 0.04 nM | 0.03 nM | 0.3 nM |  |  |  |  |  |  |  |  |  |  | Antibody G (antibody, human IgG4 S228P, kappa) heavy: not shown light: DIVMTQSPLSLPVTPGEPASISCKSSQSLLYSNGYNYLDWYLQRPGQSPQLLIYLGSNRASGVPDRFSGSGSGTDFTLKISRVEAEDVGVFYCMQALQTPLTFGGGTKVEIKRTVAAPSVFIFPPSDEQLKSGTASVVCLLNNFYPREAKVQWKVDNALQSGNSQESVTEQDSKDSTYSLSSTLTLSKADYEKHKVYACEVTHQGLSSPVTKSFNRGEC |
|  |  |  |  | 0.04 nM | 0.05 nM |  | 0.5 nM | 0.7 nM | 0.5 nM | no binding (tested: about 67 nM) | no binding (tested: about 67 nM) | no binding (tested: about 67 nM) | 1.5 nM | no binding (tested: about 67 nM) | 0.2 nM |  | Antibody A4 (antibody, human IgG1, kappa, L234A L235A, V domains shown) VH: EVQLVESGGGLVQPGGSLRLSCAASGFTLSSYDMHWVRQAPGKGLEWVSAIGTAGDTYYTGSVKGRFTISRENAKNSLYLQMNSLRAADTAVYYCVRGGVWDDAFDIWGQGTMVTVSS VL: DIQMTQSPSSLSASVGDRVTITCRASQGINNYAAWFQQKPGKAPKSLIYTASSLHSGVPSKFSGSGSGTDFTLTISSLQPEDFATYYCQQYVSYPYTFGQGTKLEIKR |
|  |  | no binding (tested: about 67 nM) |  | 0.04 nM | 0.03 nM |  |  |  |  |  |  |  |  |  | 0.2 nM | no binding (tested: about 200 nM) | Antibody F (antibody, human IgG4 S228P, kappa) heavy: not shown light: DIQMTQSPSSLSASVGDRVTITCRASQDINNYLAWFQQKPGKAPKSLIYTASSLHSGVPSKFSGSGSGTDFTLTISSLQPEDFATYYCQQYVSYPYTFGQGTKLEIKRTVAAPSVFIFPPSDEQLKSGTASVVCLLNNFYPREAKVQWKVDNALQSGNSQESVTEQDSKDSTYSLSSTLTLSKADYEKHKVYACEVTHQGLSSPVTKSFNRGEC |
